One data set has as its target T1, BzGDH (Bacillus sp. (in: firmicutes), UniProt A0A068FPP9).
T1 construct: full length, 261 residues (28 kDa predicted, 30 kDa SDS-PAGE, 120 kDa native), pET28a (NdeI/BamHI) in E. coli BL21(DE3), Ni-NTA purified, His tag removal not mentioned; N-terminus from primer MYSDLA
Description: NADH absorbance at […] nm, nonlinear Michaelis-Menten fit. Format: biochemical, Bacillus sp. ZJ. Particulars: 100 mM sodium phosphate pH 8.0, 25 °C; 1 mM NAD; glucose 1-200 mM; kcat per subunit.

For data set [1], the system named is T2, NC(=O)c1ccc[n+]([C@@H]2O[C@H](COP(=O)(O)OP(=O)(O)OC[C@H]3O[C@@H](n4cnc5c(N)ncnc54)[C@H](O)[C@@H]3O)[C@@H](O)[C@H]2O)c1.
T2 construct: full length, 261 residues (28 kDa predicted, 30 kDa SDS-PAGE, 120 kDa native), pET28a (NdeI/BamHI) in E. coli BL21(DE3), Ni-NTA purified, His tag removal not mentioned; N-terminus from primer MYSDLA
Description: purified protein. As to conditions: 100 mM sodium phosphate pH 8.0, 25 °C, glucose given as 200 µM (standard assay 200 mM), NAD 0.01-0.2 mM, kcat per subunit, varied: cofactor. It counts as biochemical, Bacillus sp. ZJ.

In data set [2] the test system is T3, NC(=O)c1ccc[n+]([C@@H]2O[C@H](COP(=O)(O)OP(=O)(O)OC[C@H]3O[C@@H](n4cnc5c(N)ncnc54)[C@H](OP(=O)(O)O)[C@@H]3O)[C@@H](O)[C@H]2O)c1.
T3 construct: full length, 261 residues (28 kDa predicted, 30 kDa SDS-PAGE, 120 kDa native), pET28a (NdeI/BamHI) in E. coli BL21(DE3), Ni-NTA purified, His tag removal not mentioned; N-terminus from primer MYSDLA
Description: purified protein. It counts as biochemical, Bacillus sp. ZJ. Particulars: 100 mM sodium phosphate pH 8.0, 25 °C, glucose given as 200 µM (standard assay 200 mM), NADP 0.01-0.2 mM, kcat per subunit, varied: cofactor.

The target of data set [3] is NAD(P)-dependent glucose 1-dehydrogenase from Bacillus sp. ZJ (Bacillus sp. ZJ). The data set is described as follows: SEC; gel filtration on a Zorbax Bio-series GF-450 column; standards lysozyme (14.3 kDa), chicken ovalbumin (45 kDa), bovine serum albumin fraction V (67 kDa), goat IgG (150 kDa); native mass estimated 120 kDa against 30 kDa on SDS-PAGE.

Broadly, the Km is the concentration of substrate that gives half-maximal velocity. Regarding `OC[C@H]1OC(O)[C@H](O)[C@@H](O)[C@@H]1O` (stereo partly drawn) [D-glucose], the Km on BzGDH is 17.1 ± 0.946 mM.
In general, kcat refers to the maximal rate divided by the concentration of active sites. By kcat/Km is commonly meant the second-order rate constant that governs catalysis at low substrate concentration. With BzGDH (Bacillus sp. (in: firmicutes)), in data set [1], the Michaelis-Menten constant (Km) turned out to be 0.072 ± 0.009 mM, the kcat is 84.5 ± 2.17 s⁻¹ and the catalytic efficiency (kcat/Km) was found to be 1.17e+06 M⁻¹ s⁻¹. In addition, in data set [2], the Michaelis constant (Km) is 0.404 ± 0.088 mM, the kcat came out at 74 ± 2.68 s⁻¹ and the kcat/Km was 183000 M⁻¹ s⁻¹.
The stoichiometry N is a count of units in the complex or per binding partner. As for “NAD(P)-dependent glucose 1-dehydrogenase from Bacillus sp. ZJ (enzyme)”, in data set [3], the stoichiometry N is 4.

Source of the values: publication PMC5486021, “Biochemical and Computational Insights on a Novel Acid-Resistant and Thermal-Stable Glucose 1-Dehydrogenase” (International Journal of Molecular Sciences, 2017).
